Experiments:
[1] = target: INI1 of 293 T producer cells (endogenous), Q12824

| Protein | INI1 incorporation into HIV-1 virions (Western blot of concentrated virions) [1] | INI1 incorporation into HIV-1 virions (Western analysis of concentrated virions) (SP38 stapled peptide) |
| --- | --- | --- |
| HIV-1NL4-3 integrase (IN), wild type, in virus / GagPol (protein) FLDGIDKAQEEHEKYHSNWRAMASDFNLPPVVAKEIVASCDKCQLKGEAMHGQVDCSPGIWQLDCTHLEGKVILVAVHVASGYIEAEVIPAETGQETAYFLLKLAGRWPVKTVHTDNGSNFTSTTVKAACWWAGIKQEFGIPYNPQSQGVIESMNKELKKIIGQVRDQAEHLKTAVQMAVFIHNFKRKGGIGGYSAGERIVDIIATDIQTKELQKQITKIQNFRVYYRDSRDPVWKGPAKLLWKGEGAVVIQDNSDIKVVPRRKAKIIRDYGKQMAGDDCVASRQDED | wild type virus (FIG. 18c lane 2) ... incorporated INI1 | INI1 was not incorporated into HIV-1 virions produced in the presence of SP38 |
| HIV-1NL4-3 integrase W235E, in virus (protein) FLDGIDKAQEEHEKYHSNWRAMASDFNLPPVVAKEIVASCDKCQLKGEAMHGQVDCSPGIWQLDCTHLEGKVILVAVHVASGYIEAEVIPAETGQETAYFLLKLAGRWPVKTVHTDNGSNFTSTTVKAACWWAGIKQEFGIPYNPQSQGVIESMNKELKKIIGQVRDQAEHLKTAVQMAVFIHNFKRKGGIGGYSAGERIVDIIATDIQTKELQKQITKIQNFRVYYRDSRDPVEKGPAKLLWKGEGAVVIQDNSDIKVVPRRKAKIIRDYGKQMAGDDCVASRQDED | but not the W235E and R228A mutant virions incorporated INI1 | – |
| HIV-1NL4-3 integrase R228A, in virus (protein) FLDGIDKAQEEHEKYHSNWRAMASDFNLPPVVAKEIVASCDKCQLKGEAMHGQVDCSPGIWQLDCTHLEGKVILVAVHVASGYIEAEVIPAETGQETAYFLLKLAGRWPVKTVHTDNGSNFTSTTVKAACWWAGIKQEFGIPYNPQSQGVIESMNKELKKIIGQVRDQAEHLKTAVQMAVFIHNFKRKGGIGGYSAGERIVDIIATDIQTKELQKQITKIQNFRVYYADSRDPVWKGPAKLLWKGEGAVVIQDNSDIKVVPRRKAKIIRDYGKQMAGDDCVASRQDED | but not the W235E and R228A mutant virions incorporated INI1 | – |
